Test [1] addresses A1/A3-C1-C2 heterodimer of thrombin-cleaved FVIII (human) (UniProt P00451). Put plainly: optical biosensor, purified protein after thrombin cleavage.
In test [2] the target is IR8 (90/b/73 R336I/R562K/R740A; del795-1688/Arg336Iso/Arg562Lys/Arg740Ala) (human) (UniProt P00451). The experiment in a line: cell-based or functional assay.
Test [3] addresses wild-type factor VIII (FVIII WT) (human) (UniProt P00451). The experiment in a line: cell-based or functional assay.
The target of test [4] is von Willebrand factor (vWF) (human) (UniProt P04275). The experiment in a line: biosensor (SPR), IR8 captured on immobilized anti-fVIII antibody; without ESH8.
The target is the same in test [5]. The experiment in a line: FVIII-vWF binding ELISA, anti-A2 domain trap, vWF from FVIII-deficient plasma, anti-vWF-HRP detection, no ESH8.
Test [6] has the same target. The experiment in a line: ELISA and affinity biosensor analysis. A general note: An ELISA detects its analyte on a solid surface through an enzyme-linked reagent.
For test [7] the target is unchanged. The experiment in a line: summary of ELISA and biosensor results.
Test [8] deals with vWF (human) (UniProt P04275). Put plainly: biosensor (SPR), IR8 captured on immobilized anti-fVIII antibody; with ESH8.
Test [9] deals with von Willebrand factor (vWF) (human) (UniProt P04275). The experiment in a line: in vitro binding to vWF, method not named in the sentence (ELISA / affinity biosensor).
For test [10] the target is unchanged. Put plainly: FVIII-vWF binding ELISA, anti-A2 domain trap, vWF from FVIII-deficient plasma, anti-vWF-HRP detection, with ESH8.
Test [11] concerns the target vWF (human) (UniProt P04275). Put plainly: biosensor (SPR), fVIII captured on immobilized anti-fVIII antibody.
For test [12], the target named is IR8 (90/b/73 R336I/R562K/R740A; del795-1688/Arg336Iso/Arg562Lys/Arg740Ala) (human) (UniProt P00451). Put plainly: optical biosensor; IR8 captured on immobilized Mab NMC-VIII/5, vWF added at 10 nM.
Test [13] shares this target. The experiment in a line: optical biosensor; IR8 (30 nM) captured on immobilized Mab NMC-VIII/5, vWF added at 10 nM.

A word on the Kd: it is a measure of binding affinity in units of concentration. A lower Kd goes with higher affinity. As usually defined, the koff is a measure of how fast the partners let go of each other. High values mean fast dissociation, low ones slow dissociation. For orientation: kon means the second-order rate constant of association.

Sequence of IR8 (90/b/73 R336I/R562K/R740A; del795-1688/Arg336Iso/Arg562Lys/Arg740Ala) (human) (P00451 other isoform, or with tags, fused parts or gaps R336I R562K R740A R562K R740A R336I R562K R740A R562K R740A, form in doubt): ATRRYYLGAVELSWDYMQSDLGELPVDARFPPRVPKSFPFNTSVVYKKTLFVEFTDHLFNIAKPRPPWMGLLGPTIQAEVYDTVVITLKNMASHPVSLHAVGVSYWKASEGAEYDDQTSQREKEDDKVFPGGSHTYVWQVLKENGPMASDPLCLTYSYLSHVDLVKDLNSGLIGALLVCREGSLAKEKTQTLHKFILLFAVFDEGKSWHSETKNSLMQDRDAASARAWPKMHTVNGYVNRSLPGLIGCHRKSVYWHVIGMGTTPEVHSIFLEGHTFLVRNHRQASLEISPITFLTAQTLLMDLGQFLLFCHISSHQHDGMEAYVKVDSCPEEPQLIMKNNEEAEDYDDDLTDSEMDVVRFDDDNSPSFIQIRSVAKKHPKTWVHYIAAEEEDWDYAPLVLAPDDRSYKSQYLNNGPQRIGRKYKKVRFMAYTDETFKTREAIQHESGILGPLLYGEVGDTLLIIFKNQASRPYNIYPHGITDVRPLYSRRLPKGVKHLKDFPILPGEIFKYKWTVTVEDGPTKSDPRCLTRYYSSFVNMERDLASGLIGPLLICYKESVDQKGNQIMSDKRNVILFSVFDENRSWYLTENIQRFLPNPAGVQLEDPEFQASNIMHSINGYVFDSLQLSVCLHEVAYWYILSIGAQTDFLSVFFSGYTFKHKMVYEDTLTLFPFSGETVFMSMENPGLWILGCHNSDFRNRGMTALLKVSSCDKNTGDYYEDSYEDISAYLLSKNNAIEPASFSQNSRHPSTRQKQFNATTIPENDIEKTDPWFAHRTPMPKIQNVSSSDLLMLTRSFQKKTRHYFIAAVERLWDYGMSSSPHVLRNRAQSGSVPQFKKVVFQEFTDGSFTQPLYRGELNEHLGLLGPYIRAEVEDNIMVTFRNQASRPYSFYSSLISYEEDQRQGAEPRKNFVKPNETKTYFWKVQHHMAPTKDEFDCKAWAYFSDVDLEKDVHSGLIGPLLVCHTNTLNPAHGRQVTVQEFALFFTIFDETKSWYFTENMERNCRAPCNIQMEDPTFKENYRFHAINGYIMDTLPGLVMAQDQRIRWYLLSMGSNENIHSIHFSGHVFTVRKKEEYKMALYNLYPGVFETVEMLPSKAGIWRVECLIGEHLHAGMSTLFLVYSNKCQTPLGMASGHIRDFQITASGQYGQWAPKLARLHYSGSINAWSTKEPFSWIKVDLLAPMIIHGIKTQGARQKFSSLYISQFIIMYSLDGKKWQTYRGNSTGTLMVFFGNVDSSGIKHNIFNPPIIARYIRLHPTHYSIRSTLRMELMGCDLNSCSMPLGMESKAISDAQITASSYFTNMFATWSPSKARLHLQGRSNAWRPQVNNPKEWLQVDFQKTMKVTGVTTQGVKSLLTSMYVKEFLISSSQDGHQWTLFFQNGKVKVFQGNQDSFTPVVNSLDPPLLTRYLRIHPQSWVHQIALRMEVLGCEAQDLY
Sequence of A1/A3-C1-C2 heterodimer of thrombin-cleaved FVIII (human) (P00451 20-391, chain 1 of 2): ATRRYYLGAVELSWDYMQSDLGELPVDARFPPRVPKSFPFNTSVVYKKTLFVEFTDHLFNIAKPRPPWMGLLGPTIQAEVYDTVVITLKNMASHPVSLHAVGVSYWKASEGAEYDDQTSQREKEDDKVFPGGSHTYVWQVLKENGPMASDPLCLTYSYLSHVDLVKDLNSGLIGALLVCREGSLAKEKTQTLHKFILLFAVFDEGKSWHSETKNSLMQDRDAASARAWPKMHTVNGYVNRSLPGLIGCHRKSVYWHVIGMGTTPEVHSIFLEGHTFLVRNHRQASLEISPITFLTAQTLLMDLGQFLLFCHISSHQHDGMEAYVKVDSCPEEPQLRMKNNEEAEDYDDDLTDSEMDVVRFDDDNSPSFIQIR
Sequence of A1/A3-C1-C2 heterodimer of thrombin-cleaved FVIII (human) (P00451 1709-2351, chain 2 of 2): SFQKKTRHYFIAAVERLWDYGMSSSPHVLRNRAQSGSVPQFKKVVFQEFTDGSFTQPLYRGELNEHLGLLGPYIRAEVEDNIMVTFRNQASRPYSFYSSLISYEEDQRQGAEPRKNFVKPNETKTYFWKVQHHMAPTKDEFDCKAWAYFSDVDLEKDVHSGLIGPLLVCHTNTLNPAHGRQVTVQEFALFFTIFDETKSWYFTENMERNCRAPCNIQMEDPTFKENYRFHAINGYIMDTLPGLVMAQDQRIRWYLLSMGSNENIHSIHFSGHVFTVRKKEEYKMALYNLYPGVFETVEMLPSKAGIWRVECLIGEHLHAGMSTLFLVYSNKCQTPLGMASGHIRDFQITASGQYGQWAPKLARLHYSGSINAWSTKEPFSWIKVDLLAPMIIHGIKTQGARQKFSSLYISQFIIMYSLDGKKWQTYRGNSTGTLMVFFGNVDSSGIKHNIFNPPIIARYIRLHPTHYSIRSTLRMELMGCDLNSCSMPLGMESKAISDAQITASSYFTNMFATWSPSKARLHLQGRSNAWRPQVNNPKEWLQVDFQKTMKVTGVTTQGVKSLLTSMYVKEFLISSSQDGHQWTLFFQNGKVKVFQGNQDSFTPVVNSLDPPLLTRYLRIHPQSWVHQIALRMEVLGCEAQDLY
Sequence of IR8/ESH8 (P00451 whole entry, one chain of several): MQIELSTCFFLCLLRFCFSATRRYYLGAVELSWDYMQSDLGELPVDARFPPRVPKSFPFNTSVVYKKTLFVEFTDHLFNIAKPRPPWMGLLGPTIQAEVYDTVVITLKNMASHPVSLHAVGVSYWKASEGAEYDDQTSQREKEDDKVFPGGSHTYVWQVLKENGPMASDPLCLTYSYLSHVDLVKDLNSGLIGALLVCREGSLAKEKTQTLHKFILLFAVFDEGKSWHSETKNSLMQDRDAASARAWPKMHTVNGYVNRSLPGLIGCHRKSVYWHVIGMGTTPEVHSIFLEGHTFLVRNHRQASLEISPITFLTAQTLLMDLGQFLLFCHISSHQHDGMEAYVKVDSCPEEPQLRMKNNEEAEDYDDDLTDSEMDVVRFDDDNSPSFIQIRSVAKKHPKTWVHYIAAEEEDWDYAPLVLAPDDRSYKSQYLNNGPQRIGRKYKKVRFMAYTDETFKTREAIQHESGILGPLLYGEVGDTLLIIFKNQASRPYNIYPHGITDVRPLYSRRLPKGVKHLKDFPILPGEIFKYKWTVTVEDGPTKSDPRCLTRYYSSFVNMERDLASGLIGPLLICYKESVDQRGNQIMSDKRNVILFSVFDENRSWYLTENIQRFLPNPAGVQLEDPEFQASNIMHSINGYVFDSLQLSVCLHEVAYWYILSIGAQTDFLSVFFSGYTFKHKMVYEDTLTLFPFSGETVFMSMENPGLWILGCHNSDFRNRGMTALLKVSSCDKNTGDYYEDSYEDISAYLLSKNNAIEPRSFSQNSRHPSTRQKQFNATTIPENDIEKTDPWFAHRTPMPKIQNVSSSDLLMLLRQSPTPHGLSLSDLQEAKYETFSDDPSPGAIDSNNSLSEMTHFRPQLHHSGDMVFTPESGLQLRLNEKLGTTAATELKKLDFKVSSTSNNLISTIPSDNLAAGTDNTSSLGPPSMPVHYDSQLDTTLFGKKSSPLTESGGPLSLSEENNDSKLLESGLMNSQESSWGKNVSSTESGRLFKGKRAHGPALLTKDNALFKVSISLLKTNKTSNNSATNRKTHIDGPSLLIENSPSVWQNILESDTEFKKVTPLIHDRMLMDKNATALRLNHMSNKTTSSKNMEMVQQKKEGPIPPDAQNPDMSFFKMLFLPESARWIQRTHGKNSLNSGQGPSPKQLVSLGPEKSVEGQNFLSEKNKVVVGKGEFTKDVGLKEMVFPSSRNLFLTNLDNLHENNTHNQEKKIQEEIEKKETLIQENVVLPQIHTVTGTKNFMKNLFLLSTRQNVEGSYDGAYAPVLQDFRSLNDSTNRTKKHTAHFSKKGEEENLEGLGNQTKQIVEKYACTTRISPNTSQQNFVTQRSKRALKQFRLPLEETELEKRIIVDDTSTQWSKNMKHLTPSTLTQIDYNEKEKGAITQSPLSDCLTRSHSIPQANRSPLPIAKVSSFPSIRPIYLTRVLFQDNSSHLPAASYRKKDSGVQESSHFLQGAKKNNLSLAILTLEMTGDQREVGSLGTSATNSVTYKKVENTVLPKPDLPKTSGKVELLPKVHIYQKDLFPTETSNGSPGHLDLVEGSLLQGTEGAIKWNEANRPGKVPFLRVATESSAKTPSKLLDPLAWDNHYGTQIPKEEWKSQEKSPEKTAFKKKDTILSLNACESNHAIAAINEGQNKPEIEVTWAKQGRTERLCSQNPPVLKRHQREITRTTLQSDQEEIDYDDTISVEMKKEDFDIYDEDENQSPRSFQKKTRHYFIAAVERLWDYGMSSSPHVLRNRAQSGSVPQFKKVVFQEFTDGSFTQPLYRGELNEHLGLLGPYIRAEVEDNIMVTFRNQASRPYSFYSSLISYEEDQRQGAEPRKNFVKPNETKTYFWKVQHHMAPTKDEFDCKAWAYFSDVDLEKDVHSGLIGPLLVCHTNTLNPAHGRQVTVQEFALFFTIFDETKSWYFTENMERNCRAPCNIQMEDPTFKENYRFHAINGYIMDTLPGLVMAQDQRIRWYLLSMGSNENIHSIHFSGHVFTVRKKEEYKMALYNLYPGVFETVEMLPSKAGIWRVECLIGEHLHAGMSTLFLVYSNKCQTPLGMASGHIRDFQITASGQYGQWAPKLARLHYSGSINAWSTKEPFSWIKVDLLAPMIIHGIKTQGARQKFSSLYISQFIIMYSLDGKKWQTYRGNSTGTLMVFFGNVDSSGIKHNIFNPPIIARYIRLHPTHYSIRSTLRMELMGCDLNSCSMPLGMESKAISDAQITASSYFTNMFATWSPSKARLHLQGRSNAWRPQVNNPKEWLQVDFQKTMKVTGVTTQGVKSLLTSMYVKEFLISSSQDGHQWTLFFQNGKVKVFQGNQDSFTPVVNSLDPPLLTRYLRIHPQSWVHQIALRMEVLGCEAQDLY

As to “A2 subunit of thrombin-cleaved R698L B-domainless FVIII (from UniProt P00451 392-759)”, the fold increased rate of A2 subunit dissociation compared to a B domainless FVIII control in test [1] was 2 fold.
Still for that read-out and setting: as for “A2 subunit of thrombin-cleaved R698W B-domainless FVIII (from UniProt P00451 392-759)”, the figure is 3 fold.
For “ESH8, anti-light chain factor VIII mouse monoclonal antibody”, the figures for the % Of Initial Activity (APTT, 4 hour incubation at 37 C with FVIII-deficient plasma), + ESH8 (% of initial activity) in test [2] and in test [3] were 120 and 29, respectively.
As for “IR8 (90/b/73 R336I/R562K/R740A; del795-1688/Arg336Iso/Arg562Lys/Arg740Ala) (from UniProt P00451 20-759; P00451 1708-2351)”, the Kd in test [4] was found to be 10.5 nM. For the same substance, in test [5], the fold lower binding affinity compared to wild-type FVIII was found to be 10 fold. In [6], the fold reduced affinity compared to rFVIII was 20 fold. In test [7], this substance showed a fold lower affinity than FVIII WT of 10 fold.
In test [8], “IR8/ESH8 (from UniProt P00451 20-759; P00451 1708-2351)” returned a koff of 0.0025 s⁻¹.
Consider “IR8/ESH8 complex (from UniProt P00451 20-759; P00451 1708-2351)”, for which the equilibrium dissociation constant (Kd) in [9] was 1.3 nM. The substance further gave a fold lower binding affinity compared to wild-type FVIII in test [10] of 2 fold.
In [11], pdfVIII had a Kd of 0.31 nM.
Regarding “von Willebrand factor (vWF) (from UniProt P04275 764-2813)”, in [12], the Kd turned out to be 29.6 nM and the koff stood at 0.0042 s⁻¹. Moreover, the kon in test [13] stood at 140000 M⁻¹ s⁻¹.
“wild-type factor VIII (FVIII WT) (from UniProt P00451 20-2351)”: in test [9], the Kd turned out to be 0.3 nM.

The record behind these values is patent publication US20120190623A1.
